This passage reports Kd results from paper PMC6715699.

A word on the Kd: it is the equilibrium constant for the complex coming apart. A low value points to a tighter complex.

The target of one data set is T1, UPF1 (UniProt Q92900 1-352+364-1129, internal_change).
T1 sequence: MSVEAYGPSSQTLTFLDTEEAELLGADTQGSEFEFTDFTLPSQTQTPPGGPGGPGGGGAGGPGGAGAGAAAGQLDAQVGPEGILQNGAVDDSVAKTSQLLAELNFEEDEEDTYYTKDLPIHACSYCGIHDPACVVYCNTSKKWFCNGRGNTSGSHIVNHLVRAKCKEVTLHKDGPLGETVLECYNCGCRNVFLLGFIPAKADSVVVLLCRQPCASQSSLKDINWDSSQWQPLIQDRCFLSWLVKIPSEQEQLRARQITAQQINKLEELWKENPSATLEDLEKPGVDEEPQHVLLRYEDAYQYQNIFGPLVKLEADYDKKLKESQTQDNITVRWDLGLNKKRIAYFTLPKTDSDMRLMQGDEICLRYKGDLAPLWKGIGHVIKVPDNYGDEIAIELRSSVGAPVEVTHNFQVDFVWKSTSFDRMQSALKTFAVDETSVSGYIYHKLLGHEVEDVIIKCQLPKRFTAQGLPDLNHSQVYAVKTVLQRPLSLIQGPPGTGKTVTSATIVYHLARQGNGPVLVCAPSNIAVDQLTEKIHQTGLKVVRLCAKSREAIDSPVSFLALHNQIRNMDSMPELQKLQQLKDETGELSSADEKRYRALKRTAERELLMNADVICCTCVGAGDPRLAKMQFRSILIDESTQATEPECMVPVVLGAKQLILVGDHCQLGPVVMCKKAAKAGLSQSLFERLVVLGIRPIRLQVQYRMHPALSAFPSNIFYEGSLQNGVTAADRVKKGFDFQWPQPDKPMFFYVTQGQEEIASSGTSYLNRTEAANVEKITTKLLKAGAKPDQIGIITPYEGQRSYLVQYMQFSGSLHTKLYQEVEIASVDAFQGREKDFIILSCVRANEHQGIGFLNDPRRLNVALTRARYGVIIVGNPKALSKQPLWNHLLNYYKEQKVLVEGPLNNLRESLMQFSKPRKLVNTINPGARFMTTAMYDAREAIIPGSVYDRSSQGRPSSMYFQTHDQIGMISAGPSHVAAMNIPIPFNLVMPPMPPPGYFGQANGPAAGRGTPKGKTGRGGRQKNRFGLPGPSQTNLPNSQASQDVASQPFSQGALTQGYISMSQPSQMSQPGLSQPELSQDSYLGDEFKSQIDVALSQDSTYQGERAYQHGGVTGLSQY
Kind of data set: MST; 50 nM labelled DNA; no binding specificity; MST in standard MST buffer (composition and pH not given), premium-treated capillaries, Monolith NT.115; 20 min at room temperature stated for the protein mixes. The conditions noted are these: protein: commercial; label: 647-NHS; blunt.

Data set [1] addresses T2, CSL (RBP-Jkappa) (UniProt Q06330 1-500). Kind of data set: MST; second independent experiment; 50 nM labelled DNA; MST in standard MST buffer (composition and pH not given), premium-treated capillaries, Monolith NT.115; 20 min at room temperature stated for the protein mixes. The conditions noted are these: protein: commercial; tags: RED-NHS dye when labelled; label: 647-NHS; blunt.

Data set [2] addresses T2, CSL (RBP-Jkappa). Kind of data set: MST; 50 nM labelled DNA; MST in standard MST buffer (composition and pH not given), premium-treated capillaries, Monolith NT.115; 20 min at room temperature stated for the protein mixes. The conditions noted are these: protein: commercial; tags: RED-NHS dye when labelled; label: 647-NHS; blunt.
Data set [3] has as its target T2, CSL (RBP-Jkappa). The experiment in a line: MST; 200 nM labelled CSL; MST in standard MST buffer (composition and pH not given), premium-treated capillaries, Monolith NT.115; 20 min at room temperature stated for the protein mixes. The conditions noted are these: protein: commercial; tags: RED-NHS dye when labelled; blunt.

T2 sequence (Q06330 whole entry): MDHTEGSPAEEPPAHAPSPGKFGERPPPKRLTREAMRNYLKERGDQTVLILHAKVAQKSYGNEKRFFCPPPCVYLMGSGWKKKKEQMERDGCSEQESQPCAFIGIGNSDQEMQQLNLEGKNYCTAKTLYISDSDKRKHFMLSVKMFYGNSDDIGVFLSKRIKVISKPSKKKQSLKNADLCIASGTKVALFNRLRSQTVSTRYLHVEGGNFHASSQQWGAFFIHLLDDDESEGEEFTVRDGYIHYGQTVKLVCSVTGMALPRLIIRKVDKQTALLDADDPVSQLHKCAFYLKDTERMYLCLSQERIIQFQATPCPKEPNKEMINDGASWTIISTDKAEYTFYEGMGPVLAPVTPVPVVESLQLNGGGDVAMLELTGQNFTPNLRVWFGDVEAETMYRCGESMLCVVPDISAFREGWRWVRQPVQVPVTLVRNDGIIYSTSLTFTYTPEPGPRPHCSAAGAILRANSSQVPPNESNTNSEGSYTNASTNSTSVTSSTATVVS

B1: TELO (TTAGGG)3 (dsDNA)
DNA 1: TTAGGGTTAGGGTTAGGG
DNA 2: CCCTAACCCTAACCCTAA
As to B1, the Kd came to 3.52 ± 0.0468 µM with UPF1, 232 ± 15.4 nM with CSL (RBP-Jkappa) [1] and 235 ± 23.9 nM in the data set with CSL (RBP-Jkappa) [2].

B2: SCRAMBLED (dsDNA)
DNA 1: GCTACTCATACCTAGAACG
DNA 2: CGTTCTAGGTATGAGTAGC
Take B2: the dissociation constant (Kd) with CSL (RBP-Jkappa) [3] amounted to 3380 ± 77.6 nM.

B3: CSL specific motif (dsDNA)
DNA 1: GTTACTGTGGGAAAGAAAG
DNA 2: CTTTCTTTCCCACAGTAAC
Turning to B3, in the data set with CSL (RBP-Jkappa) [3], binding was characterised by a dissociation constant (Kd) of 121 ± 17.4 nM.
